According to article PMC9063846 (Acta Crystallographica. Section D, Structural Biology, 2022):

Target: the molecule itself
Test: SEC-MALS; SEC-MALLS; Superdex 200 Increase 10/300 GL; 100 µl injected at 2 mg/ml; 20 mM HEPES, 200 mM NaCl pH 7.4; room temperature (20 ± 2 °C)

B1: Phocaeicola vulgatus sialic acid 9-O-acetylesterase (PvSAE), His6-tagged (enzyme)
chain: ERKYSTFYEQRATLFEELPVTSKDIIFLGNSITNGCEWAELFQNKNVKNRGISGDICMGVYDRLDPIVKGKPAKIFLLIGINDVSRGTSADKIISEISMIVRKIKQESPKTKLYLQSVLPVNDCYGMFNGHTSRWQVVKQINDLLEPLAVKEGVAYIDLYSHFVEKETGKMNPVYTNDGLHLLGKGYLLWRDIVKPYVDQK
notes: Sialic acid 9-O-acetylesterase PvSAE (BVU4141) of Phocaeicola vulgatus, GenBank ABR41743.1, without its signal peptide; the text says that the signal peptide is predicted to be cut between residues 19 and 20; Homodimer by SEC-MALLS and in both crystal forms; also called His6-PvSAE; P. vulgatus 9-O-acetylsialic acid esterase
  stoichiometry N: 2
